Source: paper PMC3777628 (Virology, 2013)

B1: MBP-Agno Ala(34–36) (natural protein)
chain: MVLRQLSRKASVKVSKTWSGTKKRAQRILIFLLAAALDFCTGEDSVDGKKRQRHSGLTEQTYSALPEPKAT
B2: MBP-Agno (17–71) (domain or fragment)
chain: TWSGTKKRAQRILIFLLEFLLDFCTGEDSVDGKKRQRHSGLTEQTYSALPEPKAT

Biological target: the molecule itself
Assay: SDS-PAGE of SDS-resistant dimers and oligomers
AQRILIFLLEFLLDFCTGEDSVDGKKRQRHSGLTEQTYSALPEPKAT (domain or fragment) [MBP-Agno (25–71)]: binds.
ILIFLLEFLLDFCTGEDSVDGKKRQRHSGLTEQTYSALPEPKAT (domain or fragment) [MBP-Agno (28–71)]: binds.
B1: binds.
B2: binds.
